Reference: article PMC11710176 (Alzheimer's & Dementia, 2024)
Where “and” joins values, the source holds several entries; their conditions need not be identical. Identical values can stand only once.

Target: tau oligomers (UniProt P10636 1-758)
Test: SPR; who was immobilised and the conditions not given
Settings: both partners purified

B1: cellular prion protein (natural protein)
chain: not shown
notes: also called PrP^C; PrPC
- Kd: 20 nM and 50 nM
